This note sets out measurements from publication PMC6929985, “Allosteric regulation of protein 14-3-3ζ scaffold by small-molecule editing modulates histone H3 post-translational modifications” (Theranostics, 2020).

The term stoichiometry N denotes a count of units in the complex or per binding partner.

The target of data set [1] is T1, recombinant human 14-3-3ζ protein (human), P63104.
T1 chain: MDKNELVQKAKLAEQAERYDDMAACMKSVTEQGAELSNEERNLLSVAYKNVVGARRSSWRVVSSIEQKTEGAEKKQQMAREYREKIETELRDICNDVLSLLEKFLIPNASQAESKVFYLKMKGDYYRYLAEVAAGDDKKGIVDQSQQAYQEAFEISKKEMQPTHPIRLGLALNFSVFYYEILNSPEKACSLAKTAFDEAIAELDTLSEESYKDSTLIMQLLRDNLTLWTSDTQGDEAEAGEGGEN
The experiment in a line: AUC; 'sedimentation equilibration analysis'; 25 μM 14-3-3ζ incubated with or without PTA at 25 °C for 8 h, centrifuged at 20 °C and 60000 rpm for 7 h; c(s) by SEDPHAT; monomer to dimer. The following applies: remark: other sources report otherwise.

Data set [2] deals with the molecule itself. Description: cross-linking; 0.025 mM 14-3-3ζ incubated with or without PTA at 25 °C for 8 h, cross-linked with 1 mM disuccinimidyl suberate for 30 min (20 mM HEPES, 100 mM KCl, 1 mM dithiothreitol, pH 8.0), quenched with 50 mM Tris-HCl; SDS-PAGE with silver staining, and LC-MS.

B1: recombinant human 14-3-3ζ protein, P63104 1-245 (natural protein)
chain: MDKNELVQKAKLAEQAERYDDMAACMKSVTEQGAELSNEERNLLSVAYKNVVGARRSSWRVVSSIEQKTEGAEKKQQMAREYREKIETELRDICNDVLSLLEKFLIPNASQAESKVFYLKMKGDYYRYLAEVAAGDDKKGIVDQSQQAYQEAFEISKKEMQPTHPIRLGLALNFSVFYYEILNSPEKACSLAKTAFDEAIAELDTLSEESYKDSTLIMQLLRDNLTLWTSDTQGDEAEAGEGGEN
For the molecule B1, in data set [1], the percent dimer (with PTA) was 77.5%, the percent dimer (without PTA) was found to be 69.1% and the stoichiometry N was determined as 2.

B2: 14-3-3ζ mutant (K158R) (natural protein, UniProt P63104 1-245, looked up)
chain: MDKNELVQKAKLAEQAERYDDMAACMKSVTEQGAELSNEERNLLSVAYKNVVGARRSSWRVVSSIEQKTEGAEKKQQMAREYREKIETELRDICNDVLSLLEKFLIPNASQAESKVFYLKMKGDYYRYLAEVAAGDDKKGIVDQSQQAYQEAFEISKREMQPTHPIRLGLALNFSVFYYEILNSPEKACSLAKTAFDEAIAELDTLSEESYKDSTLIMQLLRDNLTLWTSDTQGDEAEAGEGGEN
notes: 14-3-3ζ with K158R
Take B2: the binding result in data set [2] is reported as “binds”.
